The text below walks through data of article PMC7481185.

The target in the assay is enolase (AP-MS) (Arabidopsis thaliana) (UniProt P25696).
UniProt P25696, sequence (P25696 whole entry): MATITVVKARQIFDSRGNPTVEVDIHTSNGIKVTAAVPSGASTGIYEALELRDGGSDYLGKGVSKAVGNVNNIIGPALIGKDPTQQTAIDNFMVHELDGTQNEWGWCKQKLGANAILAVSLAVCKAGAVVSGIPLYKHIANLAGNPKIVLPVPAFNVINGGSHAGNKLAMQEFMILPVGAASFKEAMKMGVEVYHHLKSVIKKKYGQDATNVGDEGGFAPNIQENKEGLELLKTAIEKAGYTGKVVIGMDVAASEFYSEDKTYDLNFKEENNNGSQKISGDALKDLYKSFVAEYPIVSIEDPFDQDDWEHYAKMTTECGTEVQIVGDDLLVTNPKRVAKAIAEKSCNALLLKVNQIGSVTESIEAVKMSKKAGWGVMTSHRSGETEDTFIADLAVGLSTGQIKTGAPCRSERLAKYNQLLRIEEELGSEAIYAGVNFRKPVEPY

Regarding “phosphoglycerate mutase 1 (AP-MS) (enzyme)”, the efficiency (Kcat/KM) of the conversion of 3PGA to pyruvate, NADH-coupled assay: isolated mitochondria (complex) against total extra-plastidial extract (free enzymes) worked out at 19 times.
